Reference: the supplement of paper PMC7125110
± gives the standard error. Fewer inactive variants are shown than the library holds.

B1: glmS ribozyme (parent)
chain: AUAAAAGCGCCAGAACUACAGAAAUGUAGUUGACGAGGAGGAGGUUUAUCGAAUUUUCGGCGGAUGCCUCCAAA

Experiments:
Settings in all cases: with glucosamine-6-phosphate
glucosamine-6-phosphate [1] = variants of: B1; assay: self-cleavage kobs at 40 uM GlcN6P; higher = faster cleavage; RNA array
How it was run: (§1)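 Using a hybridised Cy3 probe at 37 °C, barcoded ribozyme variants transcribed in situ by E. coli RNA polymerase on sequenced MiSeq chips were monitored across tiles imaged over ~14 h. The flow contained glucosamine-6-phosphate from 40 μM to 10 mM in HEPES/KCl/Mg(OAc)2 buffer. Signals were normalised to baseline and to non-cleaving reference variants before per-tile medians were fit to one- or two-exponential decays to yield kobs. Weighted Michaelis–Menten fits across concentrations gave kcat and KM.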

glucosamine-6-phosphate [2] = variants of: B1; assay: self-cleavage kobs at 2500 uM GlcN6P; higher = faster cleavage; RNA array
How it was run: as §1

glucosamine-6-phosphate [3] = variants of: B1; assay: self-cleavage kobs at 10000 uM GlcN6P; higher = faster cleavage; RNA array
How it was run: as §1

glucosamine-6-phosphate [4] = variants of: B1; assay: self-cleavage kobs at 160 uM GlcN6P; higher = faster cleavage; RNA array
How it was run: as §1

glucosamine-6-phosphate [5] = variants of: B1; assay: self-cleavage kobs at 640 uM GlcN6P; higher = faster cleavage; RNA array
How it was run: as §1

Variant	self-cleavage kobs at 40 uM GlcN6P (glucosamine-6-phosphate [1])	self-cleavage kobs at 2500 uM GlcN6P (glucosamine-6-phosphate [2])	self-cleavage kobs at 10000 uM GlcN6P (glucosamine-6-phosphate [3])	self-cleavage kobs at 160 uM GlcN6P (glucosamine-6-phosphate [4])	self-cleavage kobs at 640 uM GlcN6P (glucosamine-6-phosphate [5])
U30A G38C A52G U69A	< 1e-05 s⁻¹	< 1e-05 s⁻¹	< 1e-05 s⁻¹		
A14G U54A	0.00167 ± 0.00022 s⁻¹	0.0173 ± 0.0047 s⁻¹	0.103 ± 0.048 s⁻¹	0.00342 ± 0.0007 s⁻¹	0.027 ± 0.0081 s⁻¹
G9A G35U	< 1e-05 s⁻¹			< 1e-05 s⁻¹	< 1e-05 s⁻¹
A12U A14G A52G	0.000148 ± 3e-05 s⁻¹	0.00387 ± 0.0018 s⁻¹	0.00726 ± 0.0014 s⁻¹		
G35U G60A	< 1e-05 s⁻¹	< 1e-05 s⁻¹	< 1e-05 s⁻¹	< 1e-05 s⁻¹	< 1e-05 s⁻¹
G13A C50G C68G	7.03e-05 ± 1.5e-05 s⁻¹	0.000125 ± 2.6e-05 s⁻¹	9.04e-05 ± 1.9e-05 s⁻¹		
C34G U54A	< 1e-05 s⁻¹	< 1e-05 s⁻¹	< 1e-05 s⁻¹	< 1e-05 s⁻¹	< 1e-05 s⁻¹
A12U A42U G59C	< 1e-05 s⁻¹				
G38U C70G	2.71e-05 ± 1e-05 s⁻¹			0.000289 ± 9.3e-05 s⁻¹	0.000298 ± 0.00014 s⁻¹
C10U G32A G51C C67U C71U	< 1e-05 s⁻¹	< 1e-05 s⁻¹			
U49C A52U	< 1e-05 s⁻¹	< 1e-05 s⁻¹	< 1e-05 s⁻¹	< 1e-05 s⁻¹	< 1e-05 s⁻¹
A42C G63A	< 1e-05 s⁻¹		< 1e-05 s⁻¹	< 1e-05 s⁻¹	< 1e-05 s⁻¹
A14G G21U C67U	0.000937 ± 0.00021 s⁻¹				
A53U U54G C71A	9.49e-05 ± 2.8e-05 s⁻¹		0.00478 ± 0.0013 s⁻¹		
G40U C68A	< 1e-05 s⁻¹	< 1e-05 s⁻¹	< 1e-05 s⁻¹	< 1e-05 s⁻¹	< 1e-05 s⁻¹
G41C G44A	< 1e-05 s⁻¹		< 1e-05 s⁻¹	< 1e-05 s⁻¹	< 1e-05 s⁻¹
G41C C68G	< 1e-05 s⁻¹	< 1e-05 s⁻¹	< 1e-05 s⁻¹	< 1e-05 s⁻¹	< 1e-05 s⁻¹
G9A C34G U46C C61U G62U	< 1e-05 s⁻¹				
C10U A12G G13C	< 1e-05 s⁻¹		< 1e-05 s⁻¹		
G38C G41U G60C	< 1e-05 s⁻¹				

Variant	self-cleavage kobs at 40 uM GlcN6P (glucosamine-6-phosphate [1])	self-cleavage kobs at 2500 uM GlcN6P (glucosamine-6-phosphate [2])	self-cleavage kobs at 10000 uM GlcN6P (glucosamine-6-phosphate [3])	self-cleavage kobs at 160 uM GlcN6P (glucosamine-6-phosphate [4])	self-cleavage kobs at 640 uM GlcN6P (glucosamine-6-phosphate [5])
U30C C50G U69A	0.000101 ± 1.6e-05 s⁻¹		0.000171 ± 2.6e-05 s⁻¹		
G44A G59C	< 1e-05 s⁻¹	< 1e-05 s⁻¹	< 1e-05 s⁻¹	< 1e-05 s⁻¹	< 1e-05 s⁻¹
A5U G40C	0.000123 ± 2.6e-05 s⁻¹	0.000574 ± 0.00021 s⁻¹			
C34A U45A	< 1e-05 s⁻¹	< 1e-05 s⁻¹		< 1e-05 s⁻¹	< 1e-05 s⁻¹
G40A U55G C68G	< 1e-05 s⁻¹				
A12C C34G	< 1e-05 s⁻¹		< 1e-05 s⁻¹	< 1e-05 s⁻¹	
G63C	< 1e-05 s⁻¹	< 1e-05 s⁻¹	< 1e-05 s⁻¹	< 1e-05 s⁻¹	< 1e-05 s⁻¹
G62C G63A	< 1e-05 s⁻¹	< 1e-05 s⁻¹		< 1e-05 s⁻¹	< 1e-05 s⁻¹
G60U A64G	< 1e-05 s⁻¹	< 1e-05 s⁻¹	< 1e-05 s⁻¹	< 1e-05 s⁻¹	< 1e-05 s⁻¹
A52C G60A G66A	< 1e-05 s⁻¹			< 1e-05 s⁻¹	< 1e-05 s⁻¹
U46C A48G C50A C71G	< 1e-05 s⁻¹				
A6G G29C G51A	< 1e-05 s⁻¹	< 1e-05 s⁻¹	< 1e-05 s⁻¹		
C8G G41U C71U	< 1e-05 s⁻¹		< 1e-05 s⁻¹		
U55G U57G	< 1e-05 s⁻¹		5.12e-05 ± 1.3e-05 s⁻¹		5.98e-05 ± 2.6e-05 s⁻¹
U31G U69A	2.79e-05 ± 1.1e-05 s⁻¹	0.000288 ± 7.4e-05 s⁻¹	0.000103 ± 1.4e-05 s⁻¹	9.26e-05 ± 3.7e-05 s⁻¹	0.00012 ± 3.2e-05 s⁻¹
G44A A48U C67A	< 1e-05 s⁻¹		0.000216 ± 5.2e-05 s⁻¹		
G7U C8U	< 1e-05 s⁻¹	< 1e-05 s⁻¹	< 1e-05 s⁻¹	< 1e-05 s⁻¹	< 1e-05 s⁻¹
G35A G59C	< 1e-05 s⁻¹	< 1e-05 s⁻¹	< 1e-05 s⁻¹	< 1e-05 s⁻¹	< 1e-05 s⁻¹
C16A G44C	< 1e-05 s⁻¹		< 1e-05 s⁻¹	< 1e-05 s⁻¹	< 1e-05 s⁻¹
